Test system: Escherichia coli TOP10
Assay: shrunken log2 fold change of peptide-encoding DNA abundance (4.5 h post-induction vs induction); higher = less antimicrobial activity (less host growth inhibition)
Conditions: time post-induction: 4.5 h; library: site-saturation at positions 5, 18, 19, 20
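Also: peptides expressed intracellularly from a pBAD plasmid library in pooled LB shake-flask culture, induced with 0.3% L-arabinose, DNA abundance read by NGS, three biological replicates, DESeq2 with apeglm shrinkage.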

Sequence | shrunken log2 fold change
RRIRWRPPRLPRPRPRPKHRPRP | 0.149
RRIRERPPRLPRPRPRPWPAPRP | 0.238
RRIRLRPPRLPRPRPRPYGDPRP | -0.0122
RRIRERPPRLPRPRPRPSGKPRP | -0.119
RRIRCRPPRLPRPRPRPCIIPRP | -0.538
RRIRIRPPRLPRPRPRPGNSPRP | -1.05
RRIRIRPPRLPRPRPRPGVRPRP | 0.135
RRIRIRPPRLPRPRPRPRWFPRP | 0.555
RRIRPRPPRLPRPRPRPLFSPRP | -0.103
RRIRGRPPRLPRPRPRPCHIPRP | -0.028
RRIRRRPPRLPRPRPRPMCYPRP | -0.069
RRIRVRPPRLPRPRPRPAVNPRP | 0.138
RRIRGRPPRLPRPRPRPFCAPRP | 0.836
RRIRNRPPRLPRPRPRPHTDPRP | -0.373
RRIRERPPRLPRPRPRPKRDPRP | 0.024
RRIRNRPPRLPRPRPRPIKRPRP | 0.0699
RRIRCRPPRLPRPRPRPEAHPRP | 0.38
RRIRARPPRLPRPRPRPFVSPRP | -0.00645
RRIRSRPPRLPRPRPRPEIEPRP | 0.0942
RRIRNRPPRLPRPRPRPTMFPRP | -0.247
RRIRWRPPRLPRPRPRPVNTPRP | -0.0848
RRIRKRPPRLPRPRPRPGIRPRP | 0.267

Sequence | shrunken log2 fold change
RRIRMRPPRLPRPRPRPMWHPRP | 0.208
RRIRTRPPRLPRPRPRPHHFPRP | -0.0421
RRIRARPPRLPRPRPRPEIIPRP | 0.396
RRIRKRPPRLPRPRPRPALSPRP | 0.253
RRIRWRPPRLPRPRPRPQNMPRP | -0.0938
RRIRCRPPRLPRPRPRPRKGPRP | 0.201
RRIRWRPPRLPRPRPRPSLWPRP | 0.575
RRIRYRPPRLPRPRPRPVSNPRP | -1.07
RRIRERPPRLPRPRPRPYEKPRP | -0.0219
RRIRWRPPRLPRPRPRPARTPRP | 0.705
RRIRMRPPRLPRPRPRPLVNPRP | 0.0639
RRIRCRPPRLPRPRPRPCYEPRP | -0.663
RRIRCRPPRLPRPRPRPMYSPRP | -0.386
RRIRWRPPRLPRPRPRPSWHPRP | 0.0186
RRIRTRPPRLPRPRPRPDCSPRP | -0.239
RRIRERPPRLPRPRPRPMYMPRP | -0.0017
RRIRWRPPRLPRPRPRPSLNPRP | -0.0829
RRIRHRPPRLPRPRPRPRQFPRP | -0.0158
RRIRCRPPRLPRPRPRPILSPRP | -0.362
RRIRIRPPRLPRPRPRPQVIPRP | -0.0417
RRIRCRPPRLPRPRPRPSRMPRP | -0.144
RRIRARPPRLPRPRPRPGTKPRP | 0.0261

Sequence | shrunken log2 fold change
RRIRFRPPRLPRPRPRPLLPPRP | -0.142
RRIRKRPPRLPRPRPRPMTVPRP | 0.0686
RRIRCRPPRLPRPRPRPRSTPRP | 0.0137
RRIRTRPPRLPRPRPRPWNHPRP | 0.0317
RRIRYRPPRLPRPRPRPSPWPRP | -0.513
RRIRHRPPRLPRPRPRPQLVPRP | -0.0576
RRIRDRPPRLPRPRPRPISIPRP | 0.0218
RRIRWRPPRLPRPRPRPFYPPRP | -0.239
RRIRPRPPRLPRPRPRPGPWPRP | 0.0326
RRIRNRPPRLPRPRPRPRGSPRP | 0.299
RRIRHRPPRLPRPRPRPYIPPRP | -0.194
RRIRARPPRLPRPRPRPTPKPRP | 0.956
RRIRMRPPRLPRPRPRPYHQPRP | -0.297
RRIRGRPPRLPRPRPRPKDGPRP | 0.798
RRIRQRPPRLPRPRPRPSYNPRP | -0.723
RRIRDRPPRLPRPRPRPNGYPRP | -0.36
RRIRWRPPRLPRPRPRPGHLPRP | 0.0651
RRIRQRPPRLPRPRPRPLKQPRP | -0.151
RRIRWRPPRLPRPRPRPRVRPRP | 0.563
RRIRLRPPRLPRPRPRPYGEPRP | -0.0013
RRIRSRPPRLPRPRPRPTDVPRP | 0.0781
RRIRARPPRLPRPRPRPTAEPRP | 1.3

Sequence | shrunken log2 fold change
RRIRFRPPRLPRPRPRPQKHPRP | -0.327
RRIRERPPRLPRPRPRPGMQPRP | -0.328
RRIRLRPPRLPRPRPRPHHNPRP | -0.547
RRIRRRPPRLPRPRPRPRECPRP | -0.12
RRIRDRPPRLPRPRPRPKMWPRP | 0.123
RRIRWRPPRLPRPRPRPNMAPRP | 0.345
RRIRTRPPRLPRPRPRPAVEPRP | -0.011
RRIRVRPPRLPRPRPRPWWSPRP | 0.0392
RRIRGRPPRLPRPRPRPMSMPRP | 0.257
RRIRERPPRLPRPRPRPQAEPRP | -0.0297
RRIRIRPPRLPRPRPRPYDDPRP | -0.0134
RRIRERPPRLPRPRPRPLMPPRP | -0.119
RRIRKRPPRLPRPRPRPPFHPRP | 0.307
RRIRPRPPRLPRPRPRPTMLPRP | -0.114
RRIRARPPRLPRPRPRPNSNPRP | -0.0294
RRIRMRPPRLPRPRPRPADGPRP | 0.19
RRIRNRPPRLPRPRPRPDHGPRP | -0.319
RRIRSRPPRLPRPRPRPTSRPRP | -0.0504
RRIRERPPRLPRPRPRPRWHPRP | 0.0135
RRIRKRPPRLPRPRPRPCQRPRP | -0.00088
RRIRWRPPRLPRPRPRPCPSPRP | 0.0767
RRIRLRPPRLPRPRPRPDSIPRP | -0.0883

Sequence | shrunken log2 fold change
RRIRGRPPRLPRPRPRPKCCPRP | 0.56
RRIRKRPPRLPRPRPRPPCPPRP | 0.399
RRIRGRPPRLPRPRPRPEMPPRP | 1.48
RRIRSRPPRLPRPRPRPSIQPRP | -0.497
RRIRYRPPRLPRPRPRPNKCPRP | -0.269
RRIRVRPPRLPRPRPRPYDWPRP | -0.206
RRIRFRPPRLPRPRPRPTHRPRP | -0.0781
RRIRPRPPRLPRPRPRPIFHPRP | -0.0968
RRIRPRPPRLPRPRPRPDVDPRP | 0.108
RRIRDRPPRLPRPRPRPYIWPRP | -0.373
RRIRSRPPRLPRPRPRPEFAPRP | 0.413
RRIRDRPPRLPRPRPRPCDGPRP | -0.0192
RRIRGRPPRLPRPRPRPAREPRP | 0.38
RRIRPRPPRLPRPRPRPYCNPRP | -0.481
RRIRPRPPRLPRPRPRPIGNPRP | -0.0419
RRIRVRPPRLPRPRPRPELCPRP | 0.0749
RRIRIRPPRLPRPRPRPQVVPRP | -0.0262
RRIRLRPPRLPRPRPRPNCWPRP | 0.388
RRIRIRPPRLPRPRPRPERVPRP | 0.089
RRIRTRPPRLPRPRPRPPDTPRP | 0.0652
RRIRCRPPRLPRPRPRPWHIPRP | -0.421
